21 molecules from patent US20250218531A1 (ABSCI, published 2025) can be followed below.

Values joined by “and” are separate entries in the source; they are usually repeats but may differ in a detail not shown here. Identical values can stand only once.

What is called Kd is the constant that tells how readily two partners part at equilibrium.

Assay [1] addresses T1, HER2 (human epidermal growth factor receptor 2) (human, UniProt P04626 23-629).
T1 construct: also called Antigen: HER2
As to the kind of experiment: SPR.

The target in assay [2] is human epidermal growth factor receptor 2 (HER2) extracellular domain (human, UniProt P04626 23-629). As to the kind of experiment: SPR. A general note: Surface plasmon resonance follows binding to a sensor surface in real time, without labels.

B1: Trastuzumab HCDR3 variant ARYYYGYGGYYFDY (Fab, V domains shown)
VH: EVQLVESGGGLVQPGGSLRLSCAASGFNIKDTYIHWVRQAPGKGLEWVARIYPTNGYTRYADSVKGRFTISADTSKNTAYLQMNSLRAEDTAVYYCARYYYGYGGYYFDYWGQGTLVTVSS
VL: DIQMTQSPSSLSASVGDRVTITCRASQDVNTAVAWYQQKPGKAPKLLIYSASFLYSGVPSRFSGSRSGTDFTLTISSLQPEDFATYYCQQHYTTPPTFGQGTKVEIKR
Consider B1, for which, in assay [1], binding was characterised by a dissociation constant (Kd) of 15 nM and the “log(KD (M))” value is -7.82.

B2: Trastuzumab HCDR3 variant ARYGYAPGFYYMDV (Fab, V domains shown)
VH: EVQLVESGGGLVQPGGSLRLSCAASGFNIKDTYIHWVRQAPGKGLEWVARIYPTNGYTRYADSVKGRFTISADTSKNTAYLQMNSLRAEDTAVYYCARYGYAPGFYYMDVWGQGTLVTVSS
VL: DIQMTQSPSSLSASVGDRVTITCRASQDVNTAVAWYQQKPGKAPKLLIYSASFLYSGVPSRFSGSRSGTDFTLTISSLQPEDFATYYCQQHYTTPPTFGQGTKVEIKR
In the case of B2, in assay [1], binding was put at a Kd of 9.72 nM and the “log(KD (M))” value is -8.01.

B3: Trastuzumab HCDR3 variant TRYYDGAGPYYMDY (Fab, V domains shown)
VH: EVQLVESGGGLVQPGGSLRLSCAASGFNIKDTYIHWVRQAPGKGLEWVARIYPTNGYTRYADSVKGRFTISADTSKNTAYLQMNSLRAEDTAVYYCTRYYDGAGPYYMDYWGQGTLVTVSS
VL: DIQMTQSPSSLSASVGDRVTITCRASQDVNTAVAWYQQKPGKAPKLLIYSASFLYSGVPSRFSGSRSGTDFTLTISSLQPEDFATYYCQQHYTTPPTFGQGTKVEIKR
B3: in assay [1], the Kd is 23.7 nM and 23.6 nM; the “log(KD (M))” value is -7.63.

B4: Trastuzumab HCDR3 variant ARYYGYYYAFDY (Fab, V domains shown)
VH: EVQLVESGGGLVQPGGSLRLSCAASGFNIKDTYIHWVRQAPGKGLEWVARIYPTNGYTRYADSVKGRFTISADTSKNTAYLQMNSLRAEDTAVYYCARYYGYYYAFDYWGQGTLVTVSS
VL: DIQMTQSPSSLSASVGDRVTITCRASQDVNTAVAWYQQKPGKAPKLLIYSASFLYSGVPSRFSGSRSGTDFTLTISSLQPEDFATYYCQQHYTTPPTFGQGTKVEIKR
Turning to B4, in assay [2], the Kd came to 46.3 nM and the “log(KD (M))” value was -7.33 log(M).

B5: Trastuzumab HCDR3 variant ARASWNWYGGDY (Fab, V domains shown)
VH: EVQLVESGGGLVQPGGSLRLSCAASGFNIKDTYIHWVRQAPGKGLEWVARIYPTNGYTRYADSVKGRFTISADTSKNTAYLQMNSLRAEDTAVYYCARASWNWYGGDYWGQGTLVTVSS
VL: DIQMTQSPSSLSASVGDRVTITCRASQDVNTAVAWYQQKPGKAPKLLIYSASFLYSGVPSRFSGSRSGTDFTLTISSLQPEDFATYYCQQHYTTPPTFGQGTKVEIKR
In the case of B5, in assay [2], the Kd was found to be 92.9 nM and the “log(KD (M))” value is -7.03 log(M).

B6: Trastuzumab HCDR3 variant AQSGSYFYPFSY (Fab, V domains shown)
VH: EVQLVESGGGLVQPGGSLRLSCAASGFNIKDTYIHWVRQAPGKGLEWVARIYPTNGYTRYADSVKGRFTISADTSKNTAYLQMNSLRAEDTAVYYCAQSGSYFYPFSYWGQGTLVTVSS
VL: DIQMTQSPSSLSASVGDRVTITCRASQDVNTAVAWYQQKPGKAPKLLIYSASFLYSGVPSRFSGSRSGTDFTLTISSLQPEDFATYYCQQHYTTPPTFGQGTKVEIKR
B6: in assay [2], the dissociation constant (Kd) was 83.2 nM and the “log(KD (M))” value is -7.08 log(M).

B7: Trastuzumab HCDR3 variant AANAAIFAAWGA (Fab, V domains shown)
VH: EVQLVESGGGLVQPGGSLRLSCAASGFNIKDTYIHWVRQAPGKGLEWVARIYPTNGYTRYADSVKGRFTISADTSKNTAYLQMNSLRAEDTAVYYCAANAAIFAAWGAWGQGTLVTVSS
VL: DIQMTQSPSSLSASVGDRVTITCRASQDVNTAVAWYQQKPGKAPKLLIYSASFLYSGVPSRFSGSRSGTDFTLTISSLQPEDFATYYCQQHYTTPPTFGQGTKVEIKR
B7: in assay [2], the Kd came out at 43.1 nM and the “log(KD (M))” value was -7.37 log(M).

B8: Trastuzumab HCDR3 variant ARFLYGSYYFDY (Fab, V domains shown)
VH: EVQLVESGGGLVQPGGSLRLSCAASGFNIKDTYIHWVRQAPGKGLEWVARIYPTNGYTRYADSVKGRFTISADTSKNTAYLQMNSLRAEDTAVYYCARFLYGSYYFDYWGQGTLVTVSS
VL: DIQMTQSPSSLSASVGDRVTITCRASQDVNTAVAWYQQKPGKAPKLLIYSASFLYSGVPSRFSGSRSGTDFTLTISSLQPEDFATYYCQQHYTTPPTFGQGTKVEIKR
Consider B8, for which, in assay [2], binding was characterised by a dissociation constant (Kd) of 135 nM and the “log(KD (M))” value is -6.87 log(M).

B9: Trastuzumab HCDR3 variant ARFPVSSYAYGF (Fab, V domains shown)
VH: EVQLVESGGGLVQPGGSLRLSCAASGFNIKDTYIHWVRQAPGKGLEWVARIYPTNGYTRYADSVKGRFTISADTSKNTAYLQMNSLRAEDTAVYYCARFPVSSYAYGFWGQGTLVTVSS
VL: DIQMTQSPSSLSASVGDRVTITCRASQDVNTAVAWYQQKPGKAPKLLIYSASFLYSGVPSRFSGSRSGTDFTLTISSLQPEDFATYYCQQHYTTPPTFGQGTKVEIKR
As to B9, in assay [2], the equilibrium dissociation constant (Kd) came out at 36.2 nM and the “log(KD (M))” value is -7.44 log(M).

B10: Trastuzumab HCDR3 variant AKYGISDYGFDH (Fab, V domains shown)
VH: EVQLVESGGGLVQPGGSLRLSCAASGFNIKDTYIHWVRQAPGKGLEWVARIYPTNGYTRYADSVKGRFTISADTSKNTAYLQMNSLRAEDTAVYYCAKYGISDYGFDHWGQGTLVTVSS
VL: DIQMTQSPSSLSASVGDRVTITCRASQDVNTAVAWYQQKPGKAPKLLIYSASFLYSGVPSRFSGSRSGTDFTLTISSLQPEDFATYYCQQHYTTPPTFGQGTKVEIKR
On to B10, for which, in assay [2], the affinity, expressed as Kd, was 207 nM and the “log(KD (M))” value is -6.68 log(M).

B11: Trastuzumab HCDR3 variant ALYKRYDYAFGY (Fab, V domains shown)
VH: EVQLVESGGGLVQPGGSLRLSCAASGFNIKDTYIHWVRQAPGKGLEWVARIYPTNGYTRYADSVKGRFTISADTSKNTAYLQMNSLRAEDTAVYYCALYKRYDYAFGYWGQGTLVTVSS
VL: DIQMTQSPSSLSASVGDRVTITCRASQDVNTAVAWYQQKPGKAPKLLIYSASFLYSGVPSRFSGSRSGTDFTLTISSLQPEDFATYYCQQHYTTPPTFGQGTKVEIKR
B11: in assay [2], the Kd came to 86.6 nM and the “log(KD (M))” value is -7.06 log(M).

B12: Trastuzumab HCDR3 variant ARASWYWYGGDK (Fab, V domains shown)
VH: EVQLVESGGGLVQPGGSLRLSCAASGFNIKDTYIHWVRQAPGKGLEWVARIYPTNGYTRYADSVKGRFTISADTSKNTAYLQMNSLRAEDTAVYYCARASWYWYGGDKWGQGTLVTVSS
VL: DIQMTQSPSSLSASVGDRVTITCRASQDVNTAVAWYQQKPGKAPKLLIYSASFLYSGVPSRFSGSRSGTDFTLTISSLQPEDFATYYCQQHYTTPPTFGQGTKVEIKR
Consider B12, for which, in assay [2], the dissociation constant (Kd) amounted to 37.8 nM and the “log(KD (M))” value is -7.42 log(M).

B13: Trastuzumab HCDR3 variant ALLYGYYPSGVG (Fab, V domains shown)
VH: EVQLVESGGGLVQPGGSLRLSCAASGFNIKDTYIHWVRQAPGKGLEWVARIYPTNGYTRYADSVKGRFTISADTSKNTAYLQMNSLRAEDTAVYYCALLYGYYPSGVGWGQGTLVTVSS
VL: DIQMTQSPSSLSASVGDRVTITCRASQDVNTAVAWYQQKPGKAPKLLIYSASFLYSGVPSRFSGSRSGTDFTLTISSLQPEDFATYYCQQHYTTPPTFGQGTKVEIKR
Take B13: in assay [2], the dissociation constant (Kd) is 262 nM and the “log(KD (M))” value is -6.58 log(M).

B14: Trastuzumab HCDR3 variant AAYWYGVYVFRY (Fab, V domains shown)
VH: EVQLVESGGGLVQPGGSLRLSCAASGFNIKDTYIHWVRQAPGKGLEWVARIYPTNGYTRYADSVKGRFTISADTSKNTAYLQMNSLRAEDTAVYYCAAYWYGVYVFRYWGQGTLVTVSS
VL: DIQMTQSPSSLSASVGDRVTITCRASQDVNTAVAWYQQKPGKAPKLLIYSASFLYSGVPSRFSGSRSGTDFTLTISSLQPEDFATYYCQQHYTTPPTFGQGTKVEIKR
Take B14: in assay [2], the Kd was determined as 113 nM and the “log(KD (M))” value was -6.95 log(M).

B15: Trastuzumab HCDR3 variant AKYGRSDYGFEH (Fab, V domains shown)
VH: EVQLVESGGGLVQPGGSLRLSCAASGFNIKDTYIHWVRQAPGKGLEWVARIYPTNGYTRYADSVKGRFTISADTSKNTAYLQMNSLRAEDTAVYYCAKYGRSDYGFEHWGQGTLVTVSS
VL: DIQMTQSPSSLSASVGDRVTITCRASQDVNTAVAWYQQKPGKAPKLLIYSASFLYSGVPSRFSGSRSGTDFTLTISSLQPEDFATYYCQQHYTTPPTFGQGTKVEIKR
For B15, in assay [2], the dissociation constant (Kd) stood at 133 nM and the “log(KD (M))” value is -6.88 log(M).

B16: Trastuzumab HCDR3 variant AAYGPQGYAFAV (Fab, V domains shown)
VH: EVQLVESGGGLVQPGGSLRLSCAASGFNIKDTYIHWVRQAPGKGLEWVARIYPTNGYTRYADSVKGRFTISADTSKNTAYLQMNSLRAEDTAVYYCAAYGPQGYAFAVWGQGTLVTVSS
VL: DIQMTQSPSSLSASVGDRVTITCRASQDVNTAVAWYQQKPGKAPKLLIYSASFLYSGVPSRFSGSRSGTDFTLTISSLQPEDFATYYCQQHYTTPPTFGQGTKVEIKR
Take B16: in assay [2], the affinity, expressed as Kd, was 33.8 nM and the “log(KD (M))” value was -7.47 log(M).

B17: Trastuzumab HCDR3 variant AKYAFGGWSYSP (Fab, V domains shown)
VH: EVQLVESGGGLVQPGGSLRLSCAASGFNIKDTYIHWVRQAPGKGLEWVARIYPTNGYTRYADSVKGRFTISADTSKNTAYLQMNSLRAEDTAVYYCAKYAFGGWSYSPWGQGTLVTVSS
VL: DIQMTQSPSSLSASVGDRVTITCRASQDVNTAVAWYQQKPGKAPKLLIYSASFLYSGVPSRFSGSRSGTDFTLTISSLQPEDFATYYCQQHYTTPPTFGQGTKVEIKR
For the molecule B17, in assay [2], binding was characterised by a dissociation constant (Kd) of 37.7 nM and the “log(KD (M))” value is -7.42 log(M).

B18: Trastuzumab HCDR3 variant AKYGTSNYGFSH (Fab, V domains shown)
VH: EVQLVESGGGLVQPGGSLRLSCAASGFNIKDTYIHWVRQAPGKGLEWVARIYPTNGYTRYADSVKGRFTISADTSKNTAYLQMNSLRAEDTAVYYCAKYGTSNYGFSHWGQGTLVTVSS
VL: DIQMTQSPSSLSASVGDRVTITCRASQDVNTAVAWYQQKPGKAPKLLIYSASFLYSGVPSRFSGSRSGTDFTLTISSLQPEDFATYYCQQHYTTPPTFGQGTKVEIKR
Consider B18, for which, in assay [2], the equilibrium dissociation constant (Kd) turned out to be 27.6 nM and the “log(KD (M))” value is -7.56 log(M).

B19: Trastuzumab HCDR3 variant AGYWYGSYSFDY (Fab, V domains shown)
VH: EVQLVESGGGLVQPGGSLRLSCAASGFNIKDTYIHWVRQAPGKGLEWVARIYPTNGYTRYADSVKGRFTISADTSKNTAYLQMNSLRAEDTAVYYCAGYWYGSYSFDYWGQGTLVTVSS
VL: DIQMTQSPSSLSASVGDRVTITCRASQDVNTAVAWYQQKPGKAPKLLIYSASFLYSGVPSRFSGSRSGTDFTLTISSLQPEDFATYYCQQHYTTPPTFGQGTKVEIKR
On to B19, for which, in assay [2], binding was put at a Kd of 35.4 nM and the “log(KD (M))” value is -7.45 log(M).

B20: Trastuzumab HCDR3 variant AASADFMYGVIR (Fab, V domains shown)
VH: EVQLVESGGGLVQPGGSLRLSCAASGFNIKDTYIHWVRQAPGKGLEWVARIYPTNGYTRYADSVKGRFTISADTSKNTAYLQMNSLRAEDTAVYYCAASADFMYGVIRWGQGTLVTVSS
VL: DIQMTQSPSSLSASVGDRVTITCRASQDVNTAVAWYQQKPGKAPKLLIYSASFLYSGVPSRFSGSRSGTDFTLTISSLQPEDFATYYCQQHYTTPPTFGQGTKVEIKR
In the case of B20, in assay [2], the dissociation constant Kd came to 39.6 nM and the “log(KD (M))” value was -7.4 log(M).

B21: Trastuzumab HCDR3 variant VRYGNSYYYDY (Fab, V domains shown)
VH: EVQLVESGGGLVQPGGSLRLSCAASGFNIKDTYIHWVRQAPGKGLEWVARIYPTNGYTRYADSVKGRFTISADTSKNTAYLQMNSLRAEDTAVYYCVRYGNSYYYDYWGQGTLVTVSS
VL: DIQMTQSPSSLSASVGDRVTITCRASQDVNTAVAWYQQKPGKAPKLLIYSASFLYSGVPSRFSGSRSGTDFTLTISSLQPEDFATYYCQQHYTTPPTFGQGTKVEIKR
With B21, in assay [1], the dissociation constant (Kd) came to 26.9 nM and the “log(KD (M))” value was -7.57.
